Assay results published in patent US20230242902A1, “A HIGHLY ERROR-PRONE […] R[…] FOR TARGETED CONTINUOUS EVOLUTION IN VIVO” (The Regents of the University of California, priority 2017, published 2023).

These molecules were tested on p1 (assay: p1 copy number by p1-encoded mKate2 fluorescence). Settings: OR-Y24, measured in triplicate.
Assay type: cell-based, S. cerevisiae
Procedure, shortened: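 Yeast OR-Y24 strains carrying TP-DNAP1 variants were grown to saturation from a 1:10,000 dilution, and p1-encoded mKate2 fluorescence was measured by flow cytometry (ex/em 561/620 nm). Values were converted to copy number via a linear calibration against qPCR of p1-encoded LEU2 versus genomic LEU3, or by plate-reader OD600-normalized fluorescence relative to w.t. TP-DNAP1.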

Row | Molecule | Mean fold-increase over w.t. (p1 copy number)
1 | I708E: TP-DNAP1 variant (protein) MDYKDKALNDLRNVYADFDSLPLDFRQILIKDRATLLQKEDVEKKILERQEDAKKYAEYLKQSEIPERISLPNIKRHKGVSISFEETSEDMVLEPRPFIFDGLNIRCFRRETIFSLKNKILNMVKESSSFKNVSRQSVSFMYFKIFNKGKVIASTKSVNIYEDKIDERLEDLCNNFDDVLKKIIDVTYGYESLFVSETYSYVIFYAKSIYFPQPRCVNNWGNNIPNILTFDSFKLFTANKNNVSCIKQCSRFLWQKDFNTLEEMIEYKNGNICIVTPQLHINDVRDIKSFNDIRLYSESPIKTFSVIDNTITYLFYFKEHLGVIFNITKSRHDRRVTKFSPLSKFSDVKNITVCFDIESYFDPEKESNQVNIPFICCASIIYNKVIGNIVDFEGRDCVAQMIEYVVDICGELNISSVELIAHNGGGYDFHYILSSMYNPAAIKNILIRNNSFISFNFAHDGVKFSVKDSYSFLLCSLANASKAFLNEETFKKTDFPHHDLKTADDLYKVYKEWSSVNTEINHVVEKEKLLITSEHIVNFTKNDKSKTLIEWSKDYCRNDVLVLSKVWLEFKNAVEDIFNCELVDQTMTLAGLSYKLFQANMPFDVELRHPNKEDYFNMREALIGGRCISVNGIYKDVLCLDVKSLYPASMAFYDQPYGSFKRVSSRPKDELGIYYVRVTPNRNNKSNFFPIRSHNKITYNNFEESTYEAWYTNVDIDIGLSEGHNIEYIPFDSYGNIGYSWSKKGKIFEKYIKDVLYKLKIKYEKQNNKVKRNVIKIIMNSLWGKFAQKWVNFEYFIKSEDDIDFESEEAYKIWDTDFMLIKKIKESTYSSKPIQNGVFTLSWARYHMKSIWDAGAKEGAECIYSDTDSIFVHKEHFKKNAKFMLNGLKVPIIGSEVGQLELECEFDKLLCAGKKQYMGFYTYFQDGKPCIKEKKRFKGIPSNYIIPELYAHLLSGADKEAKIQFLKFRREWGSVKGYIENKTVKAT | 2.41 fold
2 | I708V: TP-DNAP1 variant (protein) MDYKDKALNDLRNVYADFDSLPLDFRQILIKDRATLLQKEDVEKKILERQEDAKKYAEYLKQSEIPERISLPNIKRHKGVSISFEETSEDMVLEPRPFIFDGLNIRCFRRETIFSLKNKILNMVKESSSFKNVSRQSVSFMYFKIFNKGKVIASTKSVNIYEDKIDERLEDLCNNFDDVLKKIIDVTYGYESLFVSETYSYVIFYAKSIYFPQPRCVNNWGNNIPNILTFDSFKLFTANKNNVSCIKQCSRFLWQKDFNTLEEMIEYKNGNICIVTPQLHINDVRDIKSFNDIRLYSESPIKTFSVIDNTITYLFYFKEHLGVIFNITKSRHDRRVTKFSPLSKFSDVKNITVCFDIESYFDPEKESNQVNIPFICCASIIYNKVIGNIVDFEGRDCVAQMIEYVVDICGELNISSVELIAHNGGGYDFHYILSSMYNPAAIKNILIRNNSFISFNFAHDGVKFSVKDSYSFLLCSLANASKAFLNEETFKKTDFPHHDLKTADDLYKVYKEWSSVNTEINHVVEKEKLLITSEHIVNFTKNDKSKTLIEWSKDYCRNDVLVLSKVWLEFKNAVEDIFNCELVDQTMTLAGLSYKLFQANMPFDVELRHPNKEDYFNMREALIGGRCISVNGIYKDVLCLDVKSLYPASMAFYDQPYGSFKRVSSRPKDELGIYYVRVTPNRNNKSNFFPIRSHNKITYNNFEESTYVAWYTNVDIDIGLSEGHNIEYIPFDSYGNIGYSWSKKGKIFEKYIKDVLYKLKIKYEKQNNKVKRNVIKIIMNSLWGKFAQKWVNFEYFIKSEDDIDFESEEAYKIWDTDFMLIKKIKESTYSSKPIQNGVFTLSWARYHMKSIWDAGAKEGAECIYSDTDSIFVHKEHFKKNAKFMLNGLKVPIIGSEVGQLELECEFDKLLCAGKKQYMGFYTYFQDGKPCIKEKKRFKGIPSNYIIPELYAHLLSGADKEAKIQFLKFRREWGSVKGYIENKTVKAT | 2.01 fold
3 | E298I: TP-DNAP1 variant (protein) MDYKDKALNDLRNVYADFDSLPLDFRQILIKDRATLLQKEDVEKKILERQEDAKKYAEYLKQSEIPERISLPNIKRHKGVSISFEETSEDMVLEPRPFIFDGLNIRCFRRETIFSLKNKILNMVKESSSFKNVSRQSVSFMYFKIFNKGKVIASTKSVNIYEDKIDERLEDLCNNFDDVLKKIIDVTYGYESLFVSETYSYVIFYAKSIYFPQPRCVNNWGNNIPNILTFDSFKLFTANKNNVSCIKQCSRFLWQKDFNTLEEMIEYKNGNICIVTPQLHINDVRDIKSFNDIRLYSISPIKTFSVIDNTITYLFYFKEHLGVIFNITKSRHDRRVTKFSPLSKFSDVKNITVCFDIESYFDPEKESNQVNIPFICCASIIYNKVIGNIVDFEGRDCVAQMIEYVVDICGELNISSVELIAHNGGGYDFHYILSSMYNPAAIKNILIRNNSFISFNFAHDGVKFSVKDSYSFLLCSLANASKAFLNEETFKKTDFPHHDLKTADDLYKVYKEWSSVNTEINHVVEKEKLLITSEHIVNFTKNDKSKTLIEWSKDYCRNDVLVLSKVWLEFKNAVEDIFNCELVDQTMTLAGLSYKLFQANMPFDVELRHPNKEDYFNMREALIGGRCISVNGIYKDVLCLDVKSLYPASMAFYDQPYGSFKRVSSRPKDELGIYYVRVTPNRNNKSNFFPIRSHNKITYNNFEESTYIAWYTNVDIDIGLSEGHNIEYIPFDSYGNIGYSWSKKGKIFEKYIKDVLYKLKIKYEKQNNKVKRNVIKIIMNSLWGKFAQKWVNFEYFIKSEDDIDFESEEAYKIWDTDFMLIKKIKESTYSSKPIQNGVFTLSWARYHMKSIWDAGAKEGAECIYSDTDSIFVHKEHFKKNAKFMLNGLKVPIIGSEVGQLELECEFDKLLCAGKKQYMGFYTYFQDGKPCIKEKKRFKGIPSNYIIPELYAHLLSGADKEAKIQFLKFRREWGSVKGYIENKTVKAT | 2.34 fold
4 | I708M: TP-DNAP1 variant (protein) MDYKDKALNDLRNVYADFDSLPLDFRQILIKDRATLLQKEDVEKKILERQEDAKKYAEYLKQSEIPERISLPNIKRHKGVSISFEETSEDMVLEPRPFIFDGLNIRCFRRETIFSLKNKILNMVKESSSFKNVSRQSVSFMYFKIFNKGKVIASTKSVNIYEDKIDERLEDLCNNFDDVLKKIIDVTYGYESLFVSETYSYVIFYAKSIYFPQPRCVNNWGNNIPNILTFDSFKLFTANKNNVSCIKQCSRFLWQKDFNTLEEMIEYKNGNICIVTPQLHINDVRDIKSFNDIRLYSESPIKTFSVIDNTITYLFYFKEHLGVIFNITKSRHDRRVTKFSPLSKFSDVKNITVCFDIESYFDPEKESNQVNIPFICCASIIYNKVIGNIVDFEGRDCVAQMIEYVVDICGELNISSVELIAHNGGGYDFHYILSSMYNPAAIKNILIRNNSFISFNFAHDGVKFSVKDSYSFLLCSLANASKAFLNEETFKKTDFPHHDLKTADDLYKVYKEWSSVNTEINHVVEKEKLLITSEHIVNFTKNDKSKTLIEWSKDYCRNDVLVLSKVWLEFKNAVEDIFNCELVDQTMTLAGLSYKLFQANMPFDVELRHPNKEDYFNMREALIGGRCISVNGIYKDVLCLDVKSLYPASMAFYDQPYGSFKRVSSRPKDELGIYYVRVTPNRNNKSNFFPIRSHNKITYNNFEESTYMAWYTNVDIDIGLSEGHNIEYIPFDSYGNIGYSWSKKGKIFEKYIKDVLYKLKIKYEKQNNKVKRNVIKIIMNSLWGKFAQKWVNFEYFIKSEDDIDFESEEAYKIWDTDFMLIKKIKESTYSSKPIQNGVFTLSWARYHMKSIWDAGAKEGAECIYSDTDSIFVHKEHFKKNAKFMLNGLKVPIIGSEVGQLELECEFDKLLCAGKKQYMGFYTYFQDGKPCIKEKKRFKGIPSNYIIPELYAHLLSGADKEAKIQFLKFRREWGSVKGYIENKTVKAT | 2.32 fold
5 | I708L: TP-DNAP1 variant (protein) MDYKDKALNDLRNVYADFDSLPLDFRQILIKDRATLLQKEDVEKKILERQEDAKKYAEYLKQSEIPERISLPNIKRHKGVSISFEETSEDMVLEPRPFIFDGLNIRCFRRETIFSLKNKILNMVKESSSFKNVSRQSVSFMYFKIFNKGKVIASTKSVNIYEDKIDERLEDLCNNFDDVLKKIIDVTYGYESLFVSETYSYVIFYAKSIYFPQPRCVNNWGNNIPNILTFDSFKLFTANKNNVSCIKQCSRFLWQKDFNTLEEMIEYKNGNICIVTPQLHINDVRDIKSFNDIRLYSESPIKTFSVIDNTITYLFYFKEHLGVIFNITKSRHDRRVTKFSPLSKFSDVKNITVCFDIESYFDPEKESNQVNIPFICCASIIYNKVIGNIVDFEGRDCVAQMIEYVVDICGELNISSVELIAHNGGGYDFHYILSSMYNPAAIKNILIRNNSFISFNFAHDGVKFSVKDSYSFLLCSLANASKAFLNEETFKKTDFPHHDLKTADDLYKVYKEWSSVNTEINHVVEKEKLLITSEHIVNFTKNDKSKTLIEWSKDYCRNDVLVLSKVWLEFKNAVEDIFNCELVDQTMTLAGLSYKLFQANMPFDVELRHPNKEDYFNMREALIGGRCISVNGIYKDVLCLDVKSLYPASMAFYDQPYGSFKRVSSRPKDELGIYYVRVTPNRNNKSNFFPIRSHNKITYNNFEESTYLAWYTNVDIDIGLSEGHNIEYIPFDSYGNIGYSWSKKGKIFEKYIKDVLYKLKIKYEKQNNKVKRNVIKIIMNSLWGKFAQKWVNFEYFIKSEDDIDFESEEAYKIWDTDFMLIKKIKESTYSSKPIQNGVFTLSWARYHMKSIWDAGAKEGAECIYSDTDSIFVHKEHFKKNAKFMLNGLKVPIIGSEVGQLELECEFDKLLCAGKKQYMGFYTYFQDGKPCIKEKKRFKGIPSNYIIPELYAHLLSGADKEAKIQFLKFRREWGSVKGYIENKTVKAT | 2.16 fold
6 | I708T: TP-DNAP1 variant (protein) MDYKDKALNDLRNVYADFDSLPLDFRQILIKDRATLLQKEDVEKKILERQEDAKKYAEYLKQSEIPERISLPNIKRHKGVSISFEETSEDMVLEPRPFIFDGLNIRCFRRETIFSLKNKILNMVKESSSFKNVSRQSVSFMYFKIFNKGKVIASTKSVNIYEDKIDERLEDLCNNFDDVLKKIIDVTYGYESLFVSETYSYVIFYAKSIYFPQPRCVNNWGNNIPNILTFDSFKLFTANKNNVSCIKQCSRFLWQKDFNTLEEMIEYKNGNICIVTPQLHINDVRDIKSFNDIRLYSESPIKTFSVIDNTITYLFYFKEHLGVIFNITKSRHDRRVTKFSPLSKFSDVKNITVCFDIESYFDPEKESNQVNIPFICCASIIYNKVIGNIVDFEGRDCVAQMIEYVVDICGELNISSVELIAHNGGGYDFHYILSSMYNPAAIKNILIRNNSFISFNFAHDGVKFSVKDSYSFLLCSLANASKAFLNEETFKKTDFPHHDLKTADDLYKVYKEWSSVNTEINHVVEKEKLLITSEHIVNFTKNDKSKTLIEWSKDYCRNDVLVLSKVWLEFKNAVEDIFNCELVDQTMTLAGLSYKLFQANMPFDVELRHPNKEDYFNMREALIGGRCISVNGIYKDVLCLDVKSLYPASMAFYDQPYGSFKRVSSRPKDELGIYYVRVTPNRNNKSNFFPIRSHNKITYNNFEESTYTAWYTNVDIDIGLSEGHNIEYIPFDSYGNIGYSWSKKGKIFEKYIKDVLYKLKIKYEKQNNKVKRNVIKIIMNSLWGKFAQKWVNFEYFIKSEDDIDFESEEAYKIWDTDFMLIKKIKESTYSSKPIQNGVFTLSWARYHMKSIWDAGAKEGAECIYSDTDSIFVHKEHFKKNAKFMLNGLKVPIIGSEVGQLELECEFDKLLCAGKKQYMGFYTYFQDGKPCIKEKKRFKGIPSNYIIPELYAHLLSGADKEAKIQFLKFRREWGSVKGYIENKTVKAT | 2.41 fold
